We go through 167 variants from the RNAGym collection of RNA variant scans (doi:10.7554/elife.80360).

B1: HDV Ribozyme (parent)
chain: GGCCGGCAUGGUCCCAGCCUCCUCGCUGGCGCCGGCUGGGCAACAUUCCGAGGGGACCGUCCCCUCGGUAAUGGCGAAUGGGACCCA

In this data set the parent is B1. Put plainly: self-cleavage, relative activity (ratio to wild type); higher = more cleavage; co-transcriptional.
As to C30G G59U, the self-cleavage is 0.0744.

Regarding C30G G59C, the self-cleavage was 0.108.

Consider C30G A51C, for which the self-cleavage stood at 0.142.

With C32A A71U, the self-cleavage came out at 0.222.

For C32G C84U, the self-cleavage amounted to 0.0354.

C32G C84A: the self-cleavage amounted to 0.0386.

On to C32A G39A, for which the self-cleavage worked out at 0.0563.

On to C32G A71U, for which the self-cleavage came out at 0.115.

G31A G59U: the self-cleavage turned out to be 0.383.

With G31A G59A, the self-cleavage is 0.531.

As for C30G A56C, the self-cleavage was determined as 0.0415.

For the variant C32G G52U, the self-cleavage came to 0.198.

Regarding C32G G52A, the self-cleavage was found to be 0.254.

For C32A G50C, the self-cleavage amounted to 0.262.

C32A G50A: the self-cleavage amounted to 0.136.

For G31A C86A, the self-cleavage stood at 0.669.

On to G31A C86U, for which the self-cleavage was 0.69.

For the variant C32G G50U, the self-cleavage worked out at 0.0268.

On to C32A A70U, for which the self-cleavage turned out to be 0.0852.

Turning to C32A A70G, the self-cleavage is 0.285.

For the variant G31U G55C, the self-cleavage stood at 0.314.

C30G C44A: the self-cleavage is 0.0875.

In the case of C30G A70G, the self-cleavage came to 0.0739.

G31U G34C: the self-cleavage is 0.117.

For the variant C30U C33G, the self-cleavage is 0.266.

As for C32G C75U, the self-cleavage amounted to 0.0468.

For the variant C32G C75G, the self-cleavage is 0.

As for G31A A77C, the self-cleavage worked out at 0.199.

As for G31A A77G, the self-cleavage turned out to be 0.339.

With C30G C63G, the self-cleavage was determined as 0.0923.

C30G C63U: the self-cleavage was determined as 0.0231.

In the case of C30A G38A, the self-cleavage is 0.219.

Turning to C32G A42G, the self-cleavage stood at 0.0426.

For the variant C32G A42U, the self-cleavage turned out to be 0.0594.

For the variant G31A C75G, the self-cleavage amounted to 0.086.

Turning to G31A C75A, the self-cleavage turned out to be 0.136.

In the case of C30G A45G, the self-cleavage amounted to 0.0563.

Turning to C30G A45C, the self-cleavage was 0.0997.

As for C32A U79A, the self-cleavage was determined as 0.121.

In the case of G31U C41A, the self-cleavage worked out at 0.136.

In the case of C30G G80U, the self-cleavage stood at 0.0912.

With C32G U37G, the self-cleavage came to 0.0554.

Consider G31A U37A, for which the self-cleavage is 0.128.

With G31A G38A, the self-cleavage stood at 0.14.

In the case of G31A G38U, the self-cleavage came to 0.0702.

With G31A C49A, the self-cleavage was 0.353.

As to C30U G40U, the self-cleavage was determined as 0.114.

On to C30U G40C, for which the self-cleavage was 0.0256.

Regarding G31U A42G, the self-cleavage is 0.0923.

As to C30A G31A, the self-cleavage worked out at 0.0733.

C32A C49U: the self-cleavage stood at 0.0997.

C32A C49G: the self-cleavage was found to be 0.222.

G31A G34A: the self-cleavage was 0.0934.

For the variant G31A G34C, the self-cleavage worked out at 0.0272.

Regarding G31C A87U, the self-cleavage is 0.328.

For the variant G31C G76C, the self-cleavage came out at 0.609.

Consider G31C G76A, for which the self-cleavage is 0.453.

In the case of G31C A70U, the self-cleavage amounted to 0.128.

As for G31U C85G, the self-cleavage is 0.481.

Regarding G31U G35C, the self-cleavage turned out to be 0.141.

For C32G G82C, the self-cleavage was determined as 0.0652.

For G31U G50U, the self-cleavage was found to be 0.415.

On to C30U C58U, for which the self-cleavage came to 0.743.

Take G31U G40U: the self-cleavage is 0.166.

Take C30A U79G: the self-cleavage is 0.256.

With C30A U79A, the self-cleavage turned out to be 0.386.

As for G31C A77G, the self-cleavage amounted to 0.306.

Regarding C32G G68C, the self-cleavage stood at 0.

As for C32G A45G, the self-cleavage was 0.0811.

C32G A45U: the self-cleavage was 0.142.

C30U G76A: the self-cleavage turned out to be 0.862.

With C32A C48G, the self-cleavage amounted to 0.0462.

As to G31U A87U, the self-cleavage turned out to be 0.521.

As to C32G C36G, the self-cleavage was 0.0449.

G31A U79A: the self-cleavage worked out at 0.169.

Regarding G31C G35C, the self-cleavage was 0.0978.

For G31C G35U, the self-cleavage stood at 0.158.

C30U G74U: the self-cleavage was determined as 0.131.

Consider G31U G82C, for which the self-cleavage turned out to be 0.136.

C30G U37G: the self-cleavage came out at 0.

Consider C30A G82C, for which the self-cleavage was 0.193.

C30U G55C: the self-cleavage amounted to 0.523.

For the variant G31C A78G, the self-cleavage came to 0.302.

Consider C32G C48A, for which the self-cleavage was found to be 0.0378.

As to C32G C48G, the self-cleavage worked out at 0.0437.

Regarding C30U G39A, the self-cleavage was found to be 0.273.

For C30A G35A, the self-cleavage turned out to be 0.244.

For the variant C30U G59A, the self-cleavage is 0.878.

On to C32G C66U, for which the self-cleavage was 0.162.

Regarding C30U A56C, the self-cleavage came out at 0.772.

Turning to C32G G34C, the self-cleavage worked out at 0.0475.

C30A G81C: the self-cleavage was 0.201.

As for C32G C49U, the self-cleavage was found to be 0.0811.

In the case of G31C U47A, the self-cleavage is 0.467.

As for C32A C41U, the self-cleavage was 0.143.

For the variant G31A C66G, the self-cleavage worked out at 0.379.

Regarding G31A C66A, the self-cleavage was 0.546.

Take G31C U79C: the self-cleavage turned out to be 0.282.

For the variant C30U G67A, the self-cleavage worked out at 0.578.

As to C30U U79G, the self-cleavage was 0.128.

For C30G C75G, the self-cleavage was found to be 0.0997.

With C30G C75U, the self-cleavage came out at 0.0755.

Turning to C32A G74C, the self-cleavage was found to be 0.108.

For G31A C63U, the self-cleavage was found to be 0.606.

As for C32G C64A, the self-cleavage amounted to 0.0755.

As to C32A A45C, the self-cleavage turned out to be 0.0875.

Turning to G31U C86U, the self-cleavage was determined as 0.453.

As to G31C U37G, the self-cleavage worked out at 0.214.

Consider C30G C57U, for which the self-cleavage was found to be 0.0332.

For the variant C30U G68C, the self-cleavage came out at 0.575.

As to C30U A70U, the self-cleavage was 0.782.

Consider C32G A43C, for which the self-cleavage is 0.0536.

For the variant C32G A43U, the self-cleavage was 0.

C32A G59C: the self-cleavage came out at 0.271.

As to C32A G59A, the self-cleavage came out at 0.373.

C30A C64U: the self-cleavage came out at 0.554.

Regarding C30A C64A, the self-cleavage was found to be 0.536.

With C32G G53A, the self-cleavage came out at 0.205.

Regarding G31A U47G, the self-cleavage was found to be 0.192.

In the case of C30G G38A, the self-cleavage is 0.14.

For the variant G31A G74C, the self-cleavage is 0.182.

For the variant C32A C64U, the self-cleavage was found to be 0.175.

For C30G C66U, the self-cleavage was found to be 0.185.

For G31U C61G, the self-cleavage turned out to be 0.332.

Take C32A: the self-cleavage worked out at 0.21.

Regarding C32G, the self-cleavage is 0.103.

In the case of G31C G55C, the self-cleavage is 0.327.

As for C30G G31A, the self-cleavage worked out at 0.133.

Regarding G31C C85G, the self-cleavage worked out at 0.341.

On to G31A A43U, for which the self-cleavage was 0.128.

As to G31A C44U, the self-cleavage turned out to be 0.0898.

Turning to C30U U69G, the self-cleavage was determined as 0.554.

Turning to G31C U72A, the self-cleavage came to 0.166.

Turning to G31C U72C, the self-cleavage worked out at 0.262.

In the case of C30U G31A, the self-cleavage stood at 0.168.

Regarding G31A G81A, the self-cleavage was determined as 0.14.

For G31A G81U, the self-cleavage was 0.126.

For C30A G80U, the self-cleavage was found to be 0.153.

As for C30G U72C, the self-cleavage is 0.0594.

C30G U72A: the self-cleavage is 0.0536.

On to G31U G38A, for which the self-cleavage was 0.109.

Consider G31U G38C, for which the self-cleavage is 0.148.

Take C30U A45G: the self-cleavage was 0.796.

In the case of C30A G67C, the self-cleavage turned out to be 0.318.

Turning to C30A G50A, the self-cleavage was 0.641.

With C30G G53A, the self-cleavage was found to be 0.0482.

For C30A U69C, the self-cleavage stood at 0.623.

With C32G C63G, the self-cleavage was determined as 0.0831.

Take C32G C63U: the self-cleavage amounted to 0.112.

Consider C32A G40A, for which the self-cleavage turned out to be 0.242.

As to C32A A78U, the self-cleavage was determined as 0.0923.

C32A C44U: the self-cleavage is 0.0875.

In the case of C32A C44A, the self-cleavage was 0.364.

As for C32A C44G, the self-cleavage is 0.107.

As for G31C G34U, the self-cleavage was 0.191.

For the variant C32A C84U, the self-cleavage is 0.0536.

On to C30G G39C, for which the self-cleavage was determined as 0.131.

C32G G38A: the self-cleavage worked out at 0.0831.

C30G C32A: the self-cleavage stood at 0.115.

Regarding G31C U60C, the self-cleavage stood at 0.525.

G31C U60A: the self-cleavage came to 0.434.

In the case of G31C A51G, the self-cleavage amounted to 0.341.

Turning to G31C A51C, the self-cleavage is 0.475.

For the variant C30G G73A, the self-cleavage stood at 0.0455.

On to C30G G73C, for which the self-cleavage is 0.0489.

Turning to C32A C86U, the self-cleavage amounted to 0.147.

For C32A G52A, the self-cleavage came out at 0.302.
